Patent publication US12410234B2, “Compositions and methods for retrieving tumor-related antibodies and antigens” (THE TRUSTEES OF THE UNIVERSITY OF PENNSYLVANIA, priority 2018, dated 2025)

How the values were obtained:
BON cells = test: Flow cytometry binding of VLV or VLV-DM1 to BON cells; set-up: species or system human
Procedure: (§1) Scale bar: […]. […] Scale bar: […].

QGP1 cells = test: Flow cytometry binding of VLV or VLV-DM1 to QGP1 cells
Procedure: as §1

THP-1 cells [1] = test: Flow cytometry binding of nanobodies to THP-1 cells; set-up: species or system human
Source text: FIGS. 1A-1C are series of images and graphs depicting the steps for generating nanobodies that both differentially bind tumor cells and empower CAR T cells to kill the tumor cells. FIG. 1A: Flow chart of AML specific CAR compatible nanobodies in vivo screening. Llama was immunized with AML cell line THP-1. Nanobody library was generated from the llama PMBC including B cells by molecular cloning. Two rounds of conventional cell-based phage display were applied, which took T-ALL cell line Jurkat or chronic myelogenous leukemia (CML) cell line K-562 as negative absorption, followed by one round of count-selection. The resultant THP-1 specific nanobodies were inserted into a chimeric antigen receptor expressing lenti-vector to generate Nb-CAR library. Human primary T cells were transduced by the Nb-CAR library and injected into THP-1 or K562 borne NSG mice to perform the in vivo selection. Nbs that can adapt T cells to enrich in the tumor were PCR-amplified and sequenced. […]
FIGS. 6A-6H are series of images and graphs depicting that Nb switch-activated CAR T cells eradicate AML in vivo in a controllable manner. […] The engraftment volumes were monitored by measuring the lengths and widths of the tumors. […] The primary leukemia or CAR T cells in the mouse peripheral blood were monitored by staining with CD33 or CD3 fluorescence labeled antibodies.

Jurkat cells = test: Flow cytometry binding of nanobodies to Jurkat cells; set-up: species or system human
Source text: (§2) FIGS. 1A-1C are series of images and graphs depicting the steps for generating nanobodies that both differentially bind tumor cells and empower CAR T cells to kill the tumor cells. FIG. 1A: Flow chart of AML specific CAR compatible nanobodies in vivo screening. Llama was immunized with AML cell line THP-1. Nanobody library was generated from the llama PMBC including B cells by molecular cloning. Two rounds of conventional cell-based phage display were applied, which took T-ALL cell line Jurkat or chronic myelogenous leukemia (CML) cell line K-562 as negative absorption, followed by one round of count-selection. The resultant THP-1 specific nanobodies were inserted into a chimeric antigen receptor expressing lenti-vector to generate Nb-CAR library. Human primary T cells were transduced by the Nb-CAR library and injected into THP-1 or K562 borne NSG mice to perform the in vivo selection. Nbs that can adapt T cells to enrich in the tumor were PCR-amplified and sequenced. FIG. 1B: 10 million THP-1 cells or 5 million K562 cells were transplanted into NSG mice subcutaneously, followed by treatment of untransduced (UTD) T cells or Nb-lib-CAR T cells. 2 weeks later, Nbs from tumor infiltrated T cells were isolated and identified by PCR amplification. FIG. 1C: Top 5 frequent Nbs in the THP-1 tumor were listed and tested for their recognition to the THP-1 cells, Jurkat cells, or K-562 cells.

K562 cells = test: Flow cytometry binding of nanobodies to K562 cells; set-up: species or system human
Source text: as §2

[2] = system: other AML cell lines like HL60, NB4, and U937; test: Recognition of other AML cell lines by THP-1 specific Nbs; type: binding, human
Procedure: FIG. 7 is series of a table and graphs depicting the affinity test of VHHs against variant of AML cell lines and patient derived AMLs. The four THP-1 specific Nbs were tested for their recognition to other AML cell lines. + was <0.5 log shift, ++ was <1.0 log shift, +++ was <1.5 log shift, − was no binding.

[3] = target: T1, human full length aminopeptidase N (APN, aka CD13) (Homo sapiens, UniProt P15144); test: Flow cytometry of nanobody phage on HEK293T cells transfected with membrane protein cDNA; type: binding; conditions: nanobody-expressing phage
T1 construct: expressed in transfected cells; host or cells: HEK293T
Source text: (§3) FIGS. 4A-4F are series of images and graphs illustrating the identification of CD13 as a target to kill AML cells by CAR T cells. FIG. 4A: Experiment schema: About 3000 cell membrane protein cDNAs were purified and transfected into HEK293T cells separately, followed by flow analysis with the nanobodies expressing phage and FITC-labeled secondary antibody against phage M13 protein. FIG. 4B: Flow analysis of nanobodies binding to the HEK293T cells with CD13 overexpression. FIG. 4C: CD13 cDNA expression confirmed in HEK293T cells by western blot. FIG. 4D: Western blot to confirm the gRNA/CRISPR guided CD13 knockout effect in THP-1 cells. Three independent gRNAs were transduced into THP-1 separately, followed by puromycin selection and single individual clone expansion. FIG. 4E: Flow analysis of Nb157 or Nb163 binding CD13 knockout THP-1 cells. FIG. 4F: Killing assay of Nbs CAR T cells to the THP-1 wild type (wt) or THP-1 cd13-ko.
To identify the protein antigens of the isolated nanobodies, about 3000 human cell membrane protein cDNAs were prepared and transfected into HEK293T cells individually, followed by flow cytometry detection with the nanobody-expressing phage and FITC-labeled secondary antibody against phage M13 protein (FIG. 4A). […] As a confirmation, human CD13 cDNA expression was also shown by western blot (FIG. 4C). CD13 is preferentially expressed in acute myeloid blast cells.

[4] = system: CD13 knockout THP-1 cells; test: Flow analysis of Nb binding to CD13 knockout THP-1 cells; set-up: species or system human; conditions: flow cytometry
Source text: as §3
To knockout CD13 in THP-1 cell line, LentiCRISPRv2.0 vector was applied according to the protocol (Sanjana, N. E. et al, (2014) Nature methods 11, 783-784). sgRNA targeting human CD13 were listed as below, sgCD13-1 […] (SEQ ID NO: 14), sgCD13-2 […] (SEQ ID NO: 15), […]. Plasmids were confirmed by sequencing and packaged into lentivirus, followed by infecting THP-1 cells. […]

[5] = system: patient-derived AML cells; test: Flow analysis of Nb binding to patient derived AML cells; set-up: species or system human; conditions: patient AML2844
Procedure: FIGS. 5A-5B: Both Nb157 and Nb163 recognized the patient derived AML cells by flow analysis. FIGS. 5C-5D: Both Nb157 and Nb163 CAR T cells specifically killed the patient derived AML cells in vitro in a dose dependent manner. […] In brief, 20 million of Patient derived AML cells were injected into NSG mouse, followed by 3 million of Nb157 CAR T cells or UTD T cells treatment. The survival of mice was monitored. Each group n=10. FIGS. 5F-5I: Patient derived AML in NSG bone marrow and spleen were monitored after Nb157 CAR T cell treatment by staining with anti-human CD45/CD3/CD33, followed by flow cytometry analysis. FIGS. 5J-5K: At the end points of each group of experiment, the mice spleens were harvested and fixed by paraformaldehyde, followed by immunofluorescence staining of the anti-human CD3/CD33 and DAPI (Nuclear).
To further determine whether the Nb157 CAR T cells can also kill the patient-derived AML cells, CD13 expression of the leukemia cells from patient AML2844 was examined. […] Thereafter, the therapeutic effect of the CAR T cells on the mice with the patient-derived AML cells was examined. To this end, the NSG mice were transplanted with the primary AML cells, followed by treatment with either control UTD or Nb157 CAR T cells.

THP-1 cells [6] = test: Killing assay of Nb157-PNE-mediated sCAR system; type: cell-based, human; conditions: sCAR T to THP-1 2:1, 16 hours
Source text: FIGS. 6A-6H are series of images and graphs depicting that Nb switch-activated CAR T cells eradicate AML in vivo in a controllable manner. FIGS. 6A-6B: Schematic diagram of switchable CAR T system. The Nb157 was expressed and purified by fusing with PNE, a fourteen amino acid peptide, either at N terminal or C terminal of the Nanobody. Primary human T cells were engineered by lentivirus transduction of scFv CAR that recognized PNE specifically. FIG. 6C: Test the affinity of Nb157, Nb157-N-PNE or Nb157-C-PNE against THP-1 cells by flow cytometry analysis. FIG. 6D: Killing assay of Nb157-PNE-mediated sCAR system against THP-1 cells in series of switch concentrations. The ratio of sCAR T to THP-1 was 2:1 and assay was performed after 16 hours incubation. FIG. 6E: 10 million THP-1 cells were transplanted into NSG mice subcutaneously to form the 150 mm^3 of tumors. […] The engraftment volumes were monitored by measuring the lengths and widths of the tumors. […] The primary leukemia or CAR T cells in the mouse peripheral blood were monitored by staining with CD33 or CD3 fluorescence labeled antibodies.
Killing assays were performed as previously described (Cao, L. F. et al. (2010) Cytometry A 77, 534-545). […] Quantification were calculated by either Countbright beads or volume.

CD13-/- THP-1 cell lines = test: Killing assay on THP-1 cd13-ko cells; type: cell-based, human; conditions: THP-1 cd13-ko vs wild type
Source text: as §3
Killing assays were performed as previously described (Cao, L. F. et al. (2010) Cytometry A 77, 534-545). In brief, target cells were labeled by anti-CD33 (BD) for detecting cell number with flow cytometry analysis or labeled by CellTrace Far Red for tracing cell division. Target cells were incubated with effector T cells for 16 hrs at a series of ratios. […] Quantification were calculated by either Countbright beads or volume. […]

T1 sequence (P15144 whole entry): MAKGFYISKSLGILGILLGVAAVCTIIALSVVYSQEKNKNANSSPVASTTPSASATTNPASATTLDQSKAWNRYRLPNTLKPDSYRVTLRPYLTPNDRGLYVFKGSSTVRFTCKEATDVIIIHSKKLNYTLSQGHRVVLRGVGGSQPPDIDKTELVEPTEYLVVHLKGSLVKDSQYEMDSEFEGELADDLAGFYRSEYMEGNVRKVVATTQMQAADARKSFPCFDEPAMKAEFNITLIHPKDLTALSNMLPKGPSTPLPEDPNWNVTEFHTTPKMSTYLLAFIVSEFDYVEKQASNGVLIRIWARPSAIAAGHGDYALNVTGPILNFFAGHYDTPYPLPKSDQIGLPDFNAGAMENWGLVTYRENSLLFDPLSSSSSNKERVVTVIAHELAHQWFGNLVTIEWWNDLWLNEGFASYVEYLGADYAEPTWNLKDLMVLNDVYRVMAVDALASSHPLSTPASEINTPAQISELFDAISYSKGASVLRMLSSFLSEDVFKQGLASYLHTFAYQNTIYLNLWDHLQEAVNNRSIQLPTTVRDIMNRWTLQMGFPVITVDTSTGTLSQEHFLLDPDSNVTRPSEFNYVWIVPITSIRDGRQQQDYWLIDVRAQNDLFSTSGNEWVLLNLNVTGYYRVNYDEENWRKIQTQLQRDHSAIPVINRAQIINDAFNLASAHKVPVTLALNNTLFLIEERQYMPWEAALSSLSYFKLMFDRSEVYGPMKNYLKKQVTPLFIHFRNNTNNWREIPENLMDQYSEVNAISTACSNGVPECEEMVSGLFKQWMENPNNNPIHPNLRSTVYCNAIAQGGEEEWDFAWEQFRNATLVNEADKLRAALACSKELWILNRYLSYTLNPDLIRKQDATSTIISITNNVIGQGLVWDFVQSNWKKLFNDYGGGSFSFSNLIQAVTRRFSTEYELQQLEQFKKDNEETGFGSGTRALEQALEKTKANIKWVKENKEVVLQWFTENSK

Row | Molecule | binding to BON cells (BON cells) | binding to QGP1 cells (QGP1 cells) | binding to THP-1 cells (THP-1 cells [1]) | binding to Jurkat cells (Jurkat cells) | binding to K562 cells (K562 cells) | binding to other AML cell lines [2] | binding to cells transfected with human CD13 [3] | binding after CD13 knockout in THP-1 [4] | recognition of patient-derived AML cells [5] | switch-triggered killing of THP-1 cells by sCAR T cells (THP-1 cells [6]) | killing of target cells after CD13 knockout (CD13-/- THP-1 cell lines)
1 | VLV: VHH1 homodimer connected by a linker (protein, left off: small tags and cut ends, VHH1 homodimer connected by a linker) VHH 1: QVQLQESGGGLVQPGGSTRLSCVSSRTFSYYDMGWFRQAPGKEREFVALLSWNGENAEYSDSVMGRFTVSRGNTQNSVNLQMNNLKPEDTGIYYCAVTHGGARSVRSWGQGTQVTVSS VHH 2: QVQLQESGGGLVQPGGSTRLSCVSSRTFSYYDMGWFRQAPGKEREFVALLSWNGENAEYSDSVMGRFTVSRGNTQNSVNLQMNNLKPEDTGIYYCAVTHGGARSVRSWGQGTQVTVSS | bound to BON cells | but not QGP1 cells | – | – | – | – | – | – | – | – | –
2 | Nb157: THP-1 specific llama nanobody binding CD13, SEQ ID NO: 19 (protein, VHH157) VHH: AAQAAQVQLQESGGGLVQPGGSLSLSCTASGFTFSSYSMAWVRQAPGKGPEWVSGIYPSDGKTRYADFVKGRFSISRDNAKNMLYLQMNNLEPEDTALYYCARGITGLGPRGQGTQVTVSSAA | – | – | specifically bound THP-1 cells | but not Jurkat or K562 cells | but not Jurkat or K562 cells | also bound other AML cell lines like HL60, NB4, and U937 | bound the cells transfected with human full length aminopeptidase N | CD13 knockout abrogated the binding | detected the CD13 expression on the primary AML cells | – | –
3 | Nb157-N-PNE: Nb157 with N-terminal PNE; inducible nanobody switch (protein, left off: small tags and cut ends, Nb157 with N-terminal PNE; inducible nanobody switch) AAQAAQVQLQESGGGLVQPGGSLSLSCTASGFTFSSYSMAWVRQAPGKGPEWVSGIYPSDGKTRYADFVKGRFSISRDNAKNMLYLQMNNLEPEDTALYYCARGITGLGPRGQGTQVTVSSAA | – | – | – | – | – | – | – | – | – | slightly reduced the cytolysis-inducing activity | –
4 | Nb163: THP-1 specific llama nanobody binding CD13, SEQ ID NO: 24 (protein, VHH163) VHH: AAQAAQVQLQESGGGLVQPGGSLRLSCVPSGFTFDGYLIGWFRQAPGSERKAVSCISVNGDRTNYADSVKGRFTISRDNAKNTVYLQMNSLRPNDTAIYYCATRRGNRLYNNNCPYFEYGTWGQGTQVTVSSAA | – | – | specifically bound THP-1 cells | but not Jurkat or K562 cells | but not Jurkat or K562 cells | also bound other AML cell lines like HL60, NB4, and U937 | bound the cells transfected with human full length aminopeptidase N | CD13 knockout abrogated the binding | detected the CD13 expression on the primary AML cells | – | diminished the killing of Nb163 to the targets significantly, but cannot abrogated the effect completely
